Measurements published in patent US8475791B2, “Anti-IL-TIF antibodies and methods of use” (ZymoGenetics, Inc., priority 1999, dated 2013).

Key:
[1] = K-562 cytotoxicity assay (MTT); assay type: cell-based, human; details: human, K-562 cells, 100 uM, MTT absorbance
Method: (§1) The K-562 cell line (CRL-243, ATCC) has attained widespread use as a highly sensitive in vitro target for cytotoxicity assays. K-562 blasts are multipotential, hematopoietic malignant cells that spontaneously differentiate into recognizable progenitors of the erythrocytic, granulocytic and monocytic series (Lozzio, B B et al., Proc. Soc. Exp. Biol. Med. 166: 546-550, 1981).
(§2) K562 cells were plated at 5,000 cells/well in 96-well tissue culture clusters (Costar) in DMEM phenol-free growth medium (Life Technologies) supplemented with pyruvate and 10% serum (HyClone). Next day, human recombinant ZCYTO18 (Example 19), BSA control or retinoic acid (known to be cytotoxic to K562 cells) were added. Seventy-two hours later, the vital stain MTT (Sigma, St Louis, Mo.), a widely used indicator of mitochondrial activity and cell growth, was added to the cells at a final concentration of 0.5 mg/ml. MTT is converted to a purple formazan derivative by mitochondrial dehydrogenases. Four hours later, converted MTT was solubilized by adding an equal volume of acidic isopropanol (0.04N HCl in absolute isopropanol) to the wells. Absorbance was measured at 570 nm, with background subtraction at 650 nm. In this experimental setting, absorbance reflects cell viability. Results shown in Table 7 are expressed as % cytotoxicity.

[2] = test system: BaF3/CRF2-4/zcytor11 cells; experiment: Alamar Blue proliferation assay, BaF3/CRF2-4/zcytor11 cells; assay type: cell-based, murine; details: for proliferative response (in words): 0.06-50 ng/ml, media without IL-3
Method: BaF3/CRF2-4/zcytor11 cells were spun down and washed in the complete media, described in Example 21A above, but without mIL-3 (hereinafter referred to as “mIL-3 free media”). The cells were spun and washed 3 times to ensure the removal of the mIL-3. Cells were then counted in a hemacytometer. Cells were plated in a 96-well format at 5000 cells per well in a volume of 100 μl per well using the mIL-3 free media.
Proliferation of the BaF3/CRF2-4/zcytor11 cells was assessed using ZCYTO18-CEE protein diluted with mIL-3 free media to 50, 10, 2, 1, 0.5, 0.25, 0.13, 0.06 ng/ml concentrations. 100 μl of the diluted protein was added to the BaF3/CRF2-4/zcytor11 cells. The total assay volume is 200 μl. The assay plates were incubated at 37° C., 5% CO2 for 3 days at which time Alamar Blue (Accumed, Chicago, Ill.) was added at 20 μl/well. Plates were again incubated at 37° C., 5% CO2 for 24 hours. Alamar Blue gives a fluourometric readout based on number of live cells, and is thus a direct measurement of cell proliferation in comparison to a negative control. […]. Plates were read on the Finax™ plate reader (Molecular Devices Sunnyvale, Calif.) using the SoftMax™ Pro program, at wavelengths 544 (Excitation) and 590 (Emmission). […] The response, as measured, was approximately 15-fold over background at the high end of 50 ng/ml down to a 2-fold induction at the low end of 0.06 ng/ml.

K-562 cells = experiment: K-562 cytotoxicity assay (MTT); assay type: cell-based, human; details: 72 hours, MTT absorbance
Method: as §1, §2

BaF3/CRF2-4 cells = experiment: Alamar Blue proliferation assay, BaF3/CRF2-4 cells; assay type: cell-based, murine; details: mIL-3 free media
Method: BaF3, an interleukin-3 (IL-3) dependent pre-lymphoid cell line derived from murine bone marrow (Palacios and Steinmetz, Cell 41: 727-734, 1985; Mathey-Prevot et al., Mol. Cell. Biol. 6: 4133-4135, 1986), was maintained in complete media (RPMI medium (JRH Bioscience Inc., Lenexa, Kans.) supplemented with 10% heat-inactivated fetal calf serum, 2 ng/ml murine IL-3 (mIL-3) (R & D, Minneapolis, Minn.), 2 mM L-glutaMax-1™ (Gibco BRL), 1 mM Sodium Pyruvate (Gibco BRL), and PSN antibiotics (GIBCO BRL)). Prior to electroporation, CRF2-4/pZP7P was prepared and purified using a Qiagen Maxi Prep kit (Qiagen) as per manufacturer's instructions. […]
BaF3/CRF2-4/zcytor11 cells were spun down and washed in the complete media, described in Example 21A above, but without mIL-3 (hereinafter referred to as “mIL-3 free media”). […] Cells were then counted in a hemacytometer. […]
Proliferation of the BaF3/CRF2-4/zcytor11 cells was assessed using ZCYTO18-CEE protein diluted with mIL-3 free media to 50, 10, 2, 1, 0.5, 0.25, 0.13, 0.06 ng/ml concentrations. […] Alamar Blue gives a fluourometric readout based on number of live cells, and is thus a direct measurement of cell proliferation in comparison to a negative control. […] Plates were read on the Finax™ plate reader (Molecular Devices Sunnyvale, Calif.) using the SoftMax™ Pro program, at wavelengths 544 (Excitation) and 590 (Emmission). […]

BaF3 wild type cells = experiment: Alamar Blue proliferation assay, BaF3 wild type cells; assay type: cell-based, murine; details: mIL-3 free media
ZCYTO18 = target: T1, ZCYTO18 (Homo sapiens, UniProt Q9GZX6); details: commonly owned PCT/US00/32703; cited from earlier work
T1 sequence (Q9GZX6 34-179): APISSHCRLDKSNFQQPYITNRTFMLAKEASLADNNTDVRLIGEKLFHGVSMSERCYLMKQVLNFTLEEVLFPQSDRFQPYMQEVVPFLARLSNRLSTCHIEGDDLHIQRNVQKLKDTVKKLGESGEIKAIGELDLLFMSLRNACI

CC1=C(/C=C/C(C)=C/C=C/C(C)=C/C(=O)O)C(C)(C)CCC1 [Retinoic acid, reference compound]
cytotoxicity at 72 h, 100 µM [1]: 62%

B1: ZCYTO18: novel four-helical-bundle cytokine polypeptide, SEQ ID NO:3; annotated in the literature as IL-TIF (protein, listed as Homo sapiens)
chain: MGTLATSCLLLLALLVQGGAAAPISSHCRLDKSNFQQPYITNRTFMLAKEASLADNNTDVRLIGEKLFHGVSMSERCYLMKQVLNFTLEEVLFPQSDRFQPYMQEVVPFLARLSNRLSTCHIEGDDLHIQRNVQKLKDTVKKLGESGEIKAIGELDLLFMSLRNACI
proliferative response (in words) [2]: dose-dependent proliferative response | % Cytotoxicity (K-562 cells; 100 ng/ml): 16.2% | % Cytotoxicity (K-562 cells; 300 ng/ml): 32%

B2: ZCYTO18-CEE: ZCYTO18 polypeptide containing C-terminal GluGlu (EE) tag (SEQ ID NO:14), purified from BHK 570 or Sf9 cells (protein)
chain: APISSHCRLDKSNFQQPYITNRTFMLAKEASLADNNTDVRLIGEKLFHGVSMSERCYLMKQVLNFTLEEVLFPQSDRFQPYMQEVVPFLARLSNRLSTCHIEGDDLHIQRNVQKLKDTVKKLGESGEIKAIGELDLLFMSLRNACIEYMPME
proliferation in response to ZCYTO18-CEE (BaF3/CRF2-4 cells): did not proliferate | proliferation in response to ZCYTO18-CEE (BaF3 wild type cells): did not proliferate | proliferative response over background ([2]; 50 ng/ml, mIL-3 free media, 3 days then Alamar Blue): approximately 15 fold | proliferative response (in words) [2]: dose-dependent proliferative response

B3: zcytor16: naturally-expressed soluble receptor antagonist of ZCYTO18 (SEQ ID NO:32, SEQ ID NO:33) (protein, listed as Homo sapiens)
chain: MMPKHCFLGFLISFFLTGVAGTQSTHESLKPQRVQFQSRNFHNILQWQPGRALTGNSSVYFVQYKIYGQRQWKNKEDCWGTQELSCDLTSETSDIQEPYYGRVRAASAGSYSEWSMTPRFTPWWETKIDPPVMNITQVNGSLLVILHAPNLPYRYQKEKNVSIEDYYELLYRVFIINNSLEKEQKVYEGAHRAVEIEALTPHSSYCVVAEIYQPMLDRRSQRSEERCVEIP
binding of ZCYTO18 and antagonism of its activity (ZCYTO18): bind ZCYTO18 and antagonize its activity
